Test system: lung cancer patients
Test: Multicenter study of nivolumab in lung cancer patients: adverse events (interstitial pneumonia)
Description: Multicenter study ([sequence] University Hospital, Nagasaki Genbaku Hospital) [Subjects] Lung cancer patients [Selection criteria]
Employed were patients who had been histologically confirmed to have lung cancer through computed tomography (any T, any N, and M1, stage IV), and
who were 20 to 75 years old with performance status (PS) of 0 and retaining the functions of main tissues, met the study criteria of our institution, and voluntarily submitted a consent form to participate in the study after receiving explanation on the characteristics of the study.
This blood collection is performed concomitantly with regular blood collection during hospitalization, and no additional puncture is performed for the blood collection.

“nivolumab: human-type anti-PD-1 monoclonal antibody” was tested, and the “interstitial pneumonia with DAD (diffuse alveolar damage), acute exacerbation” value (13 lung cancer patients given nivolumab, other two cases OP) was “TR01 and TR02 were presenting with DAD” and the death (among DAD cases, in spite of discontinuation of administration) was “one case resulted in death”.

Reference: patent US20220011297A1, “METHOD FOR PREDICTING EFFECT OF IMMUNE CHECKPOINT INHIBITOR” (NAGASAKI UNIVERSITY, priority 2018, published 2022)
